A short description of series [1]: Intravenous bioavailability in rats, plasma d-amphetamine by ELISA. Conditions: relative to amphetamine. For orientation: In an ELISA, binding on a coated surface is turned into a signal by an enzyme label.
Series [2] in a line: Kitchen tests: release of amphetamine by water, acid, base and heat. To be noted: heated to boiling for 20-60 minutes.
Series [3] in a line: Oral pharmacokinetics in rats, plasma d-amphetamine by ELISA. Conditions: Oral, relative to amphetamine (first value where two are given).
Series [4] is described as follows: Oral plasma levels of oxycodone conjugates in rats, ELISA. Conditions: oral 2 mg/kg.
A short description of series [5]: Intranasal plasma levels of oxycodone conjugates in rats, ELISA. Conditions: intranasal 2 mg/kg.
The nature of series [6]: Intranasal bioavailability of oxycodone conjugates in rats, LC/MS/MS. To be noted: 1 mg/kg dose.
Series [7] can be described thus: Intravenous bioavailability of oxycodone conjugates in rats, LC/MS/MS. Conditions: 1 mg/kg dose; for AUC 0-1 h / AUC Percent OC / Cmax / Cmax Percent OC: oxycodone plus oxymorphone.

For the compound `CC(Cc1ccccc1)NC(=O)C(N)Cc1ccccc1` (stereo not drawn) [F-Amp], in series [1], the “Percent AUC” value is reported as 87% and the “Percent Cmax” value is listed as 89%.
For `CC(Cc1ccccc1)NC(=O)CNC(=O)CNC(=O)CN` (stereo not drawn) [Gly3-Amp, 2-Amino-N-({[(1-methyl-2-phenyl-ethylcarbomyl)-methyl]-carbomyl}-methyl)-acetamide], in series [2], the “amphetamine detected after treatment: Baking Powder” value worked out at 0%, the “amphetamine detected after treatment: Baking Soda” value is recorded as 0%, the “amphetamine detected after treatment: Tap Water” value was 0% and the “amphetamine detected after treatment: Vinegar” value was 0%.
For `CC(Cc1ccccc1)NC(=O)C(O)C(O)C(O)C(O)CO` (stereo not drawn) [Gulonate-Amp], in series [3], the “Percent AUC” value was 1% and the “Percent Cmax” value turned out to be 1%. For the same compound, in series [1], the “Percent AUC” value turned out to be 3% and the “Percent Cmax” value stood at 5%.
On to `C[C@@H](Cc1ccccc1)NC(=O)[C@@H](N)CCCCN` [K-Amp], for which, in series [3], the “Percent AUC” value is reported as 98% and the “Percent Cmax” value came to 55%. In series [1], the “Percent AUC” value is listed as 3% and the “Percent Cmax” value was determined as 3%.
`COc1ccc2c3c1O[C@H]1C(OC(=O)[C@@H](NC(=O)[C@H](Cc4ccc(O)cc4)NC(=O)[C@@H](N)CCC(=O)O)C(C)C)=CC[C@@]4(OC(=O)[C@@H](NC(=O)[C@H](Cc5ccc(O)cc5)NC(=O)[C@@H](N)CCC(=O)O)C(C)C)[C@@H](C2)N(C)CC[C@]314` [[Glu-Tyr-Val]2-OC]: the “% AUC” value in series [4] is recorded as 115%; in series [5], 18%. The “% Cmax” value in series [4] is on record as 103%; in series [5], 20%.
With `COc1ccc2c3c1O[C@H]1C(OC(=O)[C@@H](NC(=O)[C@H](CCC(=O)O)NC(=O)CN)C(C)C)=CC[C@@]4(OC(=O)[C@@H](NC(=O)[C@H](CCC(=O)O)NC(=O)CN)C(C)C)[C@@H](C2)N(C)CC[C@]314` [[Gly-Glu-Val]2-OC], in series [4], the “% AUC” value came to 93% and the “% Cmax” value is 61%. In series [5], the “% AUC” value was determined as 29% and the “% Cmax” value is listed as 48%.
In the case of `COc1ccc2c3c1O[C@H]1C(OC(=O)[C@@H](NC(=O)[C@H](Cc4ccc(O)cc4)NC(=O)CN)C(C)C)=CC[C@@]4(OC(=O)[C@@H](NC(=O)[C@H](Cc5ccc(O)cc5)NC(=O)CN)C(C)C)[C@@H](C2)N(C)CC[C@]314` [[Gly-Tyr-Val]2-OC], the “% AUC” value in series [4] came out at 92%; in series [5] it was 56%. The “% Cmax” value turned out to be 99% in series [4] and 54% in series [5].
On to `CC[C@H](C)[C@H](N)C(=O)N[C@@H](Cc1ccc(O)cc1)C(=O)N[C@H](C(=O)OC1=CC[C@@]2(OC(=O)[C@@H](NC(=O)[C@H](Cc3ccc(O)cc3)NC(=O)[C@@H](N)[C@@H](C)CC)C(C)C)[C@H]3Cc4ccc(OC)c5c4[C@@]2(CCN3C)[C@H]1O5)C(C)C` [[Ile-Tyr-Val]2-OC], for which, in series [4], the “% AUC” value amounted to 71% and the “% Cmax” value was determined as 82%. In series [5], the “% AUC” value was 3% and the “% Cmax” value is listed as 4%.
In the case of `COc1ccc2c3c1O[C@H]1C(OC(=O)[C@@H](NC(=O)[C@H](Cc4ccc(O)cc4)NC(=O)[C@@H](N)CC(C)C)C(C)C)=CC[C@@]4(OC(=O)[C@@H](NC(=O)[C@H](Cc5ccc(O)cc5)NC(=O)[C@@H](N)CC(C)C)C(C)C)[C@@H](C2)N(C)CC[C@]314` [[Leu-Tyr-Val]2-OC], the “% AUC” value in series [4] was found to be 131%; in series [5] it was 4%. The results for the “% Cmax” value in series [4] and in series [5] were 120% and 5%, respectively.
A word on the Cmax: it is the peak of the concentration-time curve. As for `COc1ccc2c3c1O[C@H]1C(OC(=O)[C@H](CC(C)C)NC(=O)[C@@H]4CCCN4C(=O)[C@@H]4CCCN4)=CC[C@@]4(OC(=O)[C@H](CC(C)C)NC(=O)[C@@H]5CCCN5C(=O)[C@@H]5CCCN5)[C@@H](C2)N(C)CC[C@]314` [[PPL]2-OC, [PPL]2-Oxycodone], in series [6], the “Oxycodone plus oxymorphone level at 5 Minutes” value is listed as 1380, the “Oxycodone plus oxymorphone level at 15 Minutes” value came out at 499, the “Oxycodone plus oxymorphone level at 30 Minutes” value was found to be 390 and the “Oxycodone plus oxymorphone level at 60 Minutes” value is listed as 98. In series [6] (oxycodone plus oxymorphone), the “AUC Percent OC” value is on record as 61% and the “Cmax Percent OC” value amounted to 65%. Further, in series [7], the “Oxycodone plus oxymorphone level at 5 Minutes” value was found to be 22, the “Oxycodone plus oxymorphone level at 15 Minutes” value came out at 19, the “Oxycodone plus oxymorphone level at 30 Minutes” value is on record as 19 and the “Oxycodone plus oxymorphone level at 60 Minutes” value stood at 43. In series [7], the “AUC 0-1 h” value was determined as 24 ng·h/mL, the “AUC Percent OC” value was 29%, the Cmax worked out at 43 ng/mL and the “Cmax Percent OC” value is 43%.
`COc1ccc2c3c1O[C@H]1C(OC(=O)[C@@H](NC(=O)[C@H](CCC(=O)O)NC(=O)[C@@H]4CCCN4)C(C)C)=CC[C@@]4(OC(=O)[C@@H](NC(=O)[C@H](CCC(=O)O)NC(=O)[C@@H]5CCCN5)C(C)C)[C@@H](C2)N(C)CC[C@]314` [[Pro-Glu-Val]2-OC]: in series [4], the “% AUC” value is 90% and the “% Cmax” value is 82%. For the same compound, in series [5], the “% AUC” value is recorded as 34% and the “% Cmax” value amounted to 46%.
The matching figures for `COc1ccc2c3c1O[C@H]1C(OC(=O)[C@@H](NC(=O)CNC(=O)[C@@H](N)CO)C(C)C)=CC[C@@]4(OC(=O)[C@@H](NC(=O)CNC(=O)[C@@H](N)CO)C(C)C)[C@@H](C2)N(C)CC[C@]314` [[Ser-Gly-Val]2-OC]: 90%, 92%, 64% and 73%.
For the compound Oxycodone Bitartrate, in series [6], the “Oxycodone plus oxymorphone level at 5 Minutes” value was determined as 2128, the “Oxycodone plus oxymorphone level at 15 Minutes” value was 1003, the “Oxycodone plus oxymorphone level at 30 Minutes” value came out at 688 and the “Oxycodone plus oxymorphone level at 60 Minutes” value worked out at 278. Also, in series [6] (oxycodone plus oxymorphone), the “AUC 0-1 h” value was determined as 428 ng·h/mL, the “AUC Percent OC” value was found to be 100%, the Cmax worked out at 2128 ng/mL and the “Cmax Percent OC” value came out at 100%. Also, in series [7], the “Oxycodone plus oxymorphone level at 5 Minutes” value is 99, the “Oxycodone plus oxymorphone level at 15 Minutes” value turned out to be 104, the “Oxycodone plus oxymorphone level at 30 Minutes” value was 94 and the “Oxycodone plus oxymorphone level at 60 Minutes” value turned out to be 51. In series [7], the “AUC 0-1 h” value was 82 ng·h/mL, the “AUC Percent OC” value came out at 100%, the Cmax amounted to 99 ng/mL and the “Cmax Percent OC” value came out at 100%.

The values above are taken from patent US7375083B2, “Pharmaceutical compositions for prevention of overdose or abuse” (Shire LLC, priority 2003, dated 2008).
